Target: CCR9 (chemokine (C-C motif) receptor 9) (human) (UniProt P51686)
Experiment: cell-based or functional assay

Sequence of UniProt P51686 (P51686 whole entry): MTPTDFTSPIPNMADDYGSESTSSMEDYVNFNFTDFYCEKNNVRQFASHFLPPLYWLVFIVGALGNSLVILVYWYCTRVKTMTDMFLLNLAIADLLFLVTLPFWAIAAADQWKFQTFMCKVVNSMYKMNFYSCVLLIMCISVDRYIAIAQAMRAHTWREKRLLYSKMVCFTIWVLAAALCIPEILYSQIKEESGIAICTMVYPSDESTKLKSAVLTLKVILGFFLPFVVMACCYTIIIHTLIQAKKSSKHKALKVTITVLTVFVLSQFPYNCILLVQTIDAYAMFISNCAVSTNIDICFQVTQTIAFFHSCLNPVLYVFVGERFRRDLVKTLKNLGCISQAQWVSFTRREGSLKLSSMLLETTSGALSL

Human recombinant CCL25 (from UniProt O15444 24-150) (ligand)
impairment of migratory response to CCL25 after CCR9 siRNA, melanoma line ML: 76%
impairment of migratory response to CCL25 after CCR9 siRNA, melanoma line MP: 63%

— patent US20120301477A1
